The results in this text go back to paper PMC8828050, “Covalent inhibition of endoplasmic reticulum chaperone GRP78 disconnects the transduction of ER stress signals to inflammation and lipid accumulation in diet-induced obese mice” (eLife, 2022).

Assay [1] addresses T1, Recombinant 6xHis-tagged human GRP78 protein, biotinylated (human, UniProt P11021 19-654, biotin (EZ-Link Sulfo-NHS-Biotin)).
T1 construct: 78 kDa glucose-regulated protein (GRP78), human, recombinant from Abcam; Captured on the streptavidin chip through the biotin; No Abcam catalogue number is printed; also called 78 kDa glucose-regulated protein; biotinylated GRP78; source: bought: Abcam
Nature of the assay: SPR; biotinylated GRP78 captured on streptavidin Sensor Chip SA; peptide 2.5 nM to 320 μM flowed at 30 μl/min, 25°C; 10 mM HEPES, 150 mM NaCl, 3 mM EDTA, 0.005% Tween-20, pH 7.4; steady-state analysis, 1:1 model; Biacore X100; average of four runs. As to conditions: both partners purified.

For assay [2], the target named is T2, Recombinant 6xHis-tagged human GRP78 protein, biotinylated, saturated with 10 μM celastrol (human, UniProt P11021 19-654, biotin (EZ-Link Sulfo-NHS-Biotin); celastrol covalently bound to Cys41 (mapped on recombinant mouse GRP78)).
T2 construct: 78 kDa glucose-regulated protein (GRP78), human, recombinant from Abcam; Same protein as m2, after saturation with celastrol; The covalent site Cys41 was mapped by LC-MS/MS on mouse GRP78 made in E. coli, not on the human protein on the chip; also called celastrol–GRP78 conjugate; GRP78-coated Sensor Chip saturated by celastrol; source: bought: Abcam; saturated on the chip with 10 μM celastrol
T2 sequence (P11021 19-654): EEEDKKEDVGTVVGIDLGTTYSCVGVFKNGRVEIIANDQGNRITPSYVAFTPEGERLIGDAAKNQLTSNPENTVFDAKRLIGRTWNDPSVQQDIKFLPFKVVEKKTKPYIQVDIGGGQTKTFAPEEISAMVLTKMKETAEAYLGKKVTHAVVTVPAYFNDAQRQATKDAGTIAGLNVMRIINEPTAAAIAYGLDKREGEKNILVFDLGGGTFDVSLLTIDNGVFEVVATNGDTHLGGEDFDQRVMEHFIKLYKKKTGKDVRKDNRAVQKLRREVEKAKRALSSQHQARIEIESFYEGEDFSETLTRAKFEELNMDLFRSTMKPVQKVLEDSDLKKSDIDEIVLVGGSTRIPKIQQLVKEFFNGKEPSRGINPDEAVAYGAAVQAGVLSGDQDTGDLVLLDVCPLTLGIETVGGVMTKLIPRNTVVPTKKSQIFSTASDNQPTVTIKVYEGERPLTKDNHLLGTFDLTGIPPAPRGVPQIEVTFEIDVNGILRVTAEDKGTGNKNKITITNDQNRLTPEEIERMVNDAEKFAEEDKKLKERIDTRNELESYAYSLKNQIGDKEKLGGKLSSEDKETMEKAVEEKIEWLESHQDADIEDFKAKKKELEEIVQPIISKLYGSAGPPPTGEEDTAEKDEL
Nature of the assay: SPR; as a1, but the GRP78 chip was saturated with 10 μM celastrol before the peptide; peptide 1.56 to 100 μM; steady-state analysis, 1:1 model; n = 4. The note with it: both partners purified. A general note: SPR reads the build-up and loss of mass on a sensor chip optically.

T1 sequence (P11021 19-654): as above

B1: synthetic GRP78-targeting peptide WDLAWMFRLPVG (peptide)
peptide: WDLAWMFRLPVG
notes: synthetic GRP78-targeting peptide, as described in Arap et al., 2004; That it is not a natural stretch is surmised; also called synthetic peptide; source: synthetic peptide (GL Biochem Ltd, Shanghai)
Usually Kd stands for the concentration at which binding is half-saturated. As for B1, the Kd in assay [1] is 17.7 nM; in assay [2], 2230 nM.
